Laboratory results: US10364296B2, “Antibodies specific for MMP9” (CALYPSO BIOTECH SA, priority 2014, dated 2019)

What was measured:
human pro-MMP9 [1] = biological target: T1, human pro-MMP9 (Homo sapiens, UniProt P14780); assay: Surface Plasmon Resonance (BIAcore) binding; details: for SPR binding to pro-MMP9 (in words): sensograms, 4.7 to 150 nM
Procedure: (§1) Sensorgrams of kinetics of binding are reported. Resonance unit (RU). All y axis-response (RU); all x axis-time (s).
(§2) Binding of anti-MMP9 antibodies towards recombinant human MMP9 antigen was characterized using standard Surface Plasmon Resonance (SPR) assay. In a first step, anti-MMP9 antibodies were captured by anti-human Fc antibody immobilized onto a BIAcore sensor chip. In a second step, pro-MMP9 or MMP3-activated MMP9 were titrated from 4.7 to 150 nM in 2-fold dilutions.

MMP3-activated MMP9 [2] = biological target: T2, MMP3-activated MMP9 (Homo sapiens, UniProt P14780); assay: Surface Plasmon Resonance (BIAcore) binding; details: for SPR binding to MMP3-activated MMP9 (in words): sensograms, 4.7 to 150 nM
T2 sequence (P14780 107-707): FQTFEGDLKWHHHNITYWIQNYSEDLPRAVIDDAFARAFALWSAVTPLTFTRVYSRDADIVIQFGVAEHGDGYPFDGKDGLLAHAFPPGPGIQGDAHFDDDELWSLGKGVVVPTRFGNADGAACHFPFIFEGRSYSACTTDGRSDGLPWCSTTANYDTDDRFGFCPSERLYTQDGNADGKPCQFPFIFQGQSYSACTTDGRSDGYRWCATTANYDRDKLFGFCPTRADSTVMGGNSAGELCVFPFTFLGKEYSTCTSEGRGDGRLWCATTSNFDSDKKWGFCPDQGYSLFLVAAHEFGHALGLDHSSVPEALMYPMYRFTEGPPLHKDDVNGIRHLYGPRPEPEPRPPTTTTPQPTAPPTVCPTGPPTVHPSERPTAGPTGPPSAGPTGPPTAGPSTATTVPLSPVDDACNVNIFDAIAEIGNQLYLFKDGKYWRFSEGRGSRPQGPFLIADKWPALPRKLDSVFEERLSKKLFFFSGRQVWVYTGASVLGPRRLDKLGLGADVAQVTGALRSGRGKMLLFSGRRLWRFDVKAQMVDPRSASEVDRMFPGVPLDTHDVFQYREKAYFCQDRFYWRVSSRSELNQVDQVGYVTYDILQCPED
Procedure: as §1, §2

human pro-MMP9 [3] = biological target: T1, human pro-MMP9; assay: Direct binding ELISA; details: biotinylated antibody, antigen coated at 2.5 μg/ml
Procedure: (§3) MMP9 antigens were coated at 2.5 μg/ml. Controls were streptavidin-HRP alone (closed triangles), or human IgG4 isotype control plus biotinylated anti-human-IgG second step Fab antibody (closed squares).
(§4) Direct binding capacities of anti-MMP9 antibodies towards human pro-MMP9 and MMP3-activated human MMP9, respectively, were assessed using a standard ELISA protocol. Briefly, 96-well plates were coated with (2.5 μg/ml) of either form of MMP9 for 16 h at room temperature.

MMP3-activated MMP9 [4] = biological target: T2, MMP3-activated MMP9; assay: Direct binding ELISA; details: biotinylated antibody, antigen coated at 2.5 μg/ml
Procedure: as §3, §4

[5] = biological target: Human MMP9 (i.e. activated MMP9) (Homo sapiens, UniProt P14780); assay: MMP9 assay: DQ-gelatin digestion by pre-activated (caspase-cleaved) MMP9; format: biochemical; details: MMP9 assay with highly purified activated MMP9
Sequence of Human MMP9 (i.e. activated MMP9) (P14780 107-707 limits assumed): as the sequence (P14780 107-707) above
Procedure: The functional neutralization of MMP9 catalytic activity towards the fluorogenic polymer substrate DQ-gelatin by some antibodies according to the invention was evaluated. The signature activity of MMP9 (and MMP2) is gelatin degradation. Gelatin is essentially an irreversibly denatured form derived from various collagens, several of which are considered key physiological substrates for MMP9. Unlike small peptidic substrates, the binding and recognition of gelatin (similar to that of collagen) by MMP9 is complex and known to be mediated via regions of the molecule other than the active site, including the fibronectin and PEX domains. In order to retain these physiologically relevant ‘exosite’ interactions and to facilitate the isolation of potential ‘non-classical’ allosteric neutralizer classes, a fluorogenically quenched soluble gelatin polymer (DQ-gelatin) was chosen as the key substrate for plate-based screening and ranking purposes. Substrate hydrolysis was mediated by truncated fragment of MMP9 (ie. pro-domain removed). The assay was performed in two modes. The first mode, named “MMP9 assay”, utilized pre-activated MMP9 (from engineered MMP9 containing a LETD caspase 8 recognition motif at the native cleavage junction) in which the pro-domain was first removed via directed caspase 8 cleavage. […]

[6] = test system: MGC803 human gastric cancer cells; assay: Cancer cell invasion through Matrigel-coated transwell; format: cell-based; details: 10 μg/ml antibody, PMA 100 ng/ml, 16 h
Procedure: MGC803 human gastric cancer cells were incubated with Phorbol 12-Myristate 13-Acetate (PMA) and with a broad chemical inhibitor of MMPs (GM-6001), anti-MMP9 antibody (F20-VH/B08-VLc), isotype control or medium alone. Invading cells were quantified after 16 hours using Calcein-AM. Each condition was performed in duplicates and means and SD of fluorescence units are reported.
Cancer cell line invasion was assessed using Matrigel-coated transwells. Insert membranes of transwells (provided in kit from Cultrex—3455-024) were coated with basement membrane extract (BME ×0.5; provided in Cultrex's kit) and incubated for 24 h at 37° C. Meanwhile, MGC803 (human gastric cancer cell line—Easy-Bio, China) were starved in RPMI culture medium (Gibco—52400025) deprived of serum (starving medium). […] One hundred μl of treated cells were seeded into Matrigel-coated transwells and 500 μl of RPMI medium containing 10% FCS were added in the lower side of the transwell. Plates were incubated for 16 h at 37° C. Invading cells were quantified by incubation of the bottom side of transwell membrane with Calcein-AM, whose cleavage into fluorescent Calcein is proportional to cell counts. Emitted fluorescent signal (Excitation at 485 nm, emission at 520 nm) reflects efficiency of cell invasion through Matrigel.

MMP3-activated MMP9 [7] = biological target: T2, MMP3-activated MMP9; assay: Competitive binding ELISA; details: pre-incubation with 50 μg/mL purified antibody
From the text: For panels A, B, C, results are expressed as mean±SD of corrected absorbance (A450-A620) for each condition performed in duplicate.

[8] = test system: heterotopic intestinal grafts in C57BL/6 mice; assay: Heterotopic transplant mouse model of intestinal fibrosis; format: in vivo
Procedure: Donor (green fluorescent protein-marked C57BL/6-Tg UBC-GFP mice) small bowel resections were transplanted subcutaneously into the neck of recipient C57BL/6 mice. Mice were injected intraperitoneally at day 5, 8 and 10 with 30 mg/kg of an anti-MMP9 antibody of the invention (F20-VH/B08-VLc, variant F20-VH-GL1-V4-V9/B08-VL-GL6c), or isotype control antibody (IgG4), 5 mice per group. Small bowel grafts were explanted 14 days after transplantation. After explant, each graft was divided into three equal segments. The central segment was fixed in 4% formalin, and prepared for histopathological assessment. The two outer segments were snap frozen in liquid nitrogen and stored at −70° C. until RNA or protein extraction.
Histologic cross sections were stained with Sirius red to highlight collagen (red stain). Collagen layer thickness was determined by an independent investigator blinded to the type of experiment. Microscopic assessment was done using an AxioCam MRc5 on a Zeiss Axiophot microscope. The thickness of the collagen layer was measured with the AxioVision Release 4.7.2 software (Zeiss). Thickness was calculated from eight places in representative areas (in eight samples investigated for each time point) at 100-fold magnification. Statistical analyses were performed using PRISM 6 software. Unpaired t test was used for comparison among groups.

[9] = test system: DSS-induced colitis in BALB/c mice; assay: DSS-induced colitis mouse model; format: in vivo; details: Day 14, vs isotype control
Procedure: The therapeutic efficacy of an anti-MMP9 antibody according to the invention was assessed in a DSS-induced colitis model in BALB/c mice. Colitis was induced with 4% (w/v) DSS in drinking water for 5 days. Doses of 30 mg/kg F20-VH/B08-VLc (variant F20-VH-GL1-V4-V9/B08-VL-GL6c) or isotype control (IgG4) antibodies were intraperitoneally injected to groups of 10 mice at day 6, 9 and 12, and animals were sacrificed at day 14.
The course of the disease was evaluated in blind fashion by video endoscopy of the lower colon at days 6, 10 and 14. Colitis was scored visually on a scale of 0-14 based on the degree of ulceration, vascularisation, and granularity present in tissue and colon length involved as follows: ulceration (0, 1, 2 or 3), masking of vascularisation (0, 1, 2 or 3), granularity (0, 1, 2 or 3), erythema (0, 1, 2 or 3), length involved (0, 1: localized, 2: diffuse). Each mouse was assigned a single endoscopy score corresponding to the damage observed throughout the entire length of the colon examined.
At study termination (Day 14), distal colon was excised from each mouse, formalin-fixed and embedded in paraffin and sectioned for histology. All sections were stained with haematoxylin and eosin and examined in a fashion blind as to treatment groups. Tissues were scored for epithelium damage and infiltration of inflammatory cells according to the scoring scale of […] for each parameter. The histology score represents the sum of the epithelium damage and infiltration of inflammatory cell scores, and thus ranges from 0 to 8.

T1 sequence (P14780 20-707): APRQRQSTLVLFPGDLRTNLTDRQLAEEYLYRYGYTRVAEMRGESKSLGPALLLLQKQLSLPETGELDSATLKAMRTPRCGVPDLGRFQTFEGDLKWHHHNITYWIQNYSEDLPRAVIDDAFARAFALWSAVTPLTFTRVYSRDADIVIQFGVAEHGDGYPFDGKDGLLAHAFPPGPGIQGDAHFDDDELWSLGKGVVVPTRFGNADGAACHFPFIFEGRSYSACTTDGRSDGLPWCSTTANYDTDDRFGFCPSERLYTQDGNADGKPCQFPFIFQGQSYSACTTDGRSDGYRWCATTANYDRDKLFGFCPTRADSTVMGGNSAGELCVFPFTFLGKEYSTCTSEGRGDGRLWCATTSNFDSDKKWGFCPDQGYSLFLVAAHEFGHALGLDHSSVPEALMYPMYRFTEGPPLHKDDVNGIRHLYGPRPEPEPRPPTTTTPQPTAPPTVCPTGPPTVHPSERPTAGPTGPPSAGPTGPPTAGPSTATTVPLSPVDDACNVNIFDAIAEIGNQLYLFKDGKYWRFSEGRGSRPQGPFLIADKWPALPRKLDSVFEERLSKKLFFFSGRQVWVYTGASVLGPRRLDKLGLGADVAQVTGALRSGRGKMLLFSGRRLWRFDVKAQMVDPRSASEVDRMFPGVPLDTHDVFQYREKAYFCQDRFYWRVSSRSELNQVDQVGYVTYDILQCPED

Row | Molecule | SPR binding to pro-MMP9 (in words) (human pro-MMP9 [1]) | SPR binding to MMP3-activated MMP9 (in words) (MMP3-activated MMP9 [2]) | ELISA direct binding to pro-MMP9 (in words) (human pro-MMP9 [3]) | ELISA direct binding to MMP3-activated MMP9 (in words) (MMP3-activated MMP9 [4]) | decrease of DQ-gelatin digestion (in words) [5] | inhibition of migration of MGC803 cancer cells through Matrigel [6] | binding observed to pro-MMP9 (human pro-MMP9 [1]; SPR, at a 150 nM antibody concentration) [%] | competition with biotinylated comparative antibody 1 for binding to MMP9 (in words) (MMP3-activated MMP9 [7]) | occlusion of the intestinal lumen of the graft ([8]; 14 days after transplantation) | Kd (human pro-MMP9 [1]; SPR, antibody captured by anti-human Fc, calculated from the curves, read-out: KD (nM), antigen Pro-MMP9) [nM] | Kd (MMP3-activated MMP9 [2]; SPR, MMP3-activated MMP9, calculated from the curves, read-out: KD (nM), antigen MMP9) [nM] | mean endoscopy score ([9]; 30 mg/kg i.p. day 6, 9, 12, p=0.005) | mean colitis severity score (histology) ([9]; 30 mg/kg i.p.) | mean score for epithelial damage ([9]; 30 mg/kg i.p.) | mean score for infiltration of inflammatory cells ([9]; 30 mg/kg i.p.) | loss of epithelial structure in heterotopic intestinal grafts ([8]; 30 mg/kg i.p. day 5, 8, 10, day 14, vs isotype control) | collagen layer thickness in heterotopic intestinal grafts ([8]; 30 mg/kg i.p. day 5, 8, 10, day 14, vs isotype control, p<0.0001)
1 | comparative antibody 1: antibody known as AB0041, heavy chain SEQ ID NO: 44, light chain SEQ ID NO: 45; mouse monoclonal, WO 2013/130078 [reference compound] | binds well | bind well | binds well | strongly bind | inactive |  |  |  |  |  |  |  |  |  |  |  | 
2 | F20-VH-GL1-V4-V9/B08-VL-GL6c: VH SEQ ID NO: 19; VL SEQ ID NO: 70; reformatted as human IgG4; the F20-VH/B08-VLc variant of Examples 5-12 (antibody, V domains shown, human IgG4 format; heavy chain F20-VH-GL1-V4-V9; light chain B08-VL-GL6c) VH: EVQLVESGGGLVQPGRSLRLSCAASGFTFNDYPMHWVRQAPGKGLEWVSGISSRSGSVGYAESVKGRFTISRDNAKNSLYLQMNSLRAEDTALYYCARDKIYYGSGSYDFYYYYGMDVWGQGTTVTVSS VL: QSALTQPASVSGSPGQSITISCTGTSNDVGAYNRVSWYQQHPGKAPKLMIYGVSNRPSGVSNRFSGSKSGNTASLTISGLQAEDEADFYCTSYSSSTTSYVVFGGGTKVTVL | minimal signal | bind well | only shows significant binding to pro-MMP9 at the highest concentration tested | strongly bind |  | efficiently inhibits migration | < 1 | does not prevent binding of comparative antibody 1 | partial occlusion of the intestinal lumen |  |  |  |  |  |  |  | 
3 | F20-VH/B08-VLc: VH SEQ ID NO: 11; VL SEQ ID NO: 69; HO candidate selected for lead optimization; name also used loosely for its tested variant (antibody, V domains shown, heavy chain F20-VH; light chain B08-VLc) VH: EVQLVESGGGLVQPGRSLRLSCAASGFTFNDYPMHWVRQAPGKGLEWVSGISSNSGSVGYADSVKGRFTISRDNAKNSLYLQMNSLRDEDTAVYYCARDKIYYGSGSYDFYYYYGMDVWGQGTTVTVSS VL: QSALTQPRSVSGSPGQSVTISCTGTSNDVGAYNRVSWYQQHPGKAPKLLIYGVSNRPSGVSTRFSGSKSGNTASLTISGLLAADEADFYCTSYSSSTTSYVVFGGGTKVTVL |  |  |  |  |  |  |  |  |  | > 15000 | 11.7 | significant improvement | decrease | decreased | decreased | significantly protects against loss of epithelial structure | reduces collagen layer thickness
